From PMC5900708

Biological target: human DOT1L^CC2 (second coiled-coil domain of DOT1L) (human) (UniProt Q8TEK3)
Test: SEC

stoichiometry N: 2
Substance: human DOT1L^CC2 (second coiled-coil domain of DOT1L) (from UniProt Q8TEK3 1-1537) (domain or fragment)
